Reference: PMC2833306

Biological target: integrins on HS deficient CHO-2241 cells (Chinese hamster (endogenous in CHO-2241))
Assay: flow cytometry on cells; CHO-2241 cells (HS deficient) in PBS 1 mM CaCl2, 1 h at 4°C with 15 ug/mL particles; bound particles detected with rabbit serum against the Ad3 penton base and FITC secondary antibody

MutAQAS dodecahedron (HAd3 penton base, KQKR to AQAS) (from UniProt Q2Y0H9 1-544) (complex)
inhibition of binding compared to Bs-Dd: 80%
